Where a SMILES comes first, the peptide text is derived from it. The star is where a group is joined. RhodamineB = CCN(CC)c1ccc2c(-c3ccccc3C(=O)*)c3ccc(=[N+](CC)CC)cc-3oc2c1

The test system of this series is cells exposed to conjugate in culture medium, regardless of the cell type.

As to `CCN(CC)c1ccc2c(-c3ccccc3C(=O)N[C@@H](CCC(N)=O)C(=O)N[C@@H](CCCNC(=N)N)C(=O)N[C@@H](CC(C)C)C(=O)N[C@@H](Cc3ccccc3)C(=O)N[C@@H](CCC(N)=O)C(=O)N[C@H](C(=O)N[C@@H](CCCCN)C(=O)NCC(=O)N[C@@H](CCCNC(=N)N)C(=O)N[C@@H](CCCNC(=N)N)C(=O)O)C(C)C)c3ccc(=[N+](CC)CC)cc-3oc2c1` [rhodamine-Sequence I.D. No. 2] (RhodamineB-QRLFQVKGRR-OH), the “intracellular free calcium increase caused by conjugate” value is on record as “did not result in uptake of free fluorescein or induce a large increase in intracellular free calcium”.

Values taken from US5846743A, “Polyphoshoinositide binding peptides for intracellular drug delivery” (Brigham and Women's Hospital, Inc., priority 1996, dated 1998).
